Measured values published in paper PMC7884711, “Identification of efficient prokaryotic cell-penetrating peptides with applications in bacterial biotechnology” (Communications Biology, 2021).
Where no end group is shown, it is not given here.

Tests used:
E. coli DH5α cells [1] = assay: Penetration efficiency of TAMRA-labeled CPPs, non-treated cells (control method), flow cytometry; details: 5 μg TAMRA-labeled CPP (0.1 μg/μL), 1 h, PBS washes
Protocol: For the evaluation and optimization of the electroporation-based method, five efficient CPPs were selected from the previous reports[45],[46] […] The CPP were labeled with TAMRA to trace their penetration into the cytoplasm. First, we prepared electrocompetent and chemically competent cells[46]. As a negative control, we also prepared non-treated cells. After treating the five TAMRA-labeled CPP peptides, either distilled water or 20 mM Tris-Cl (pH = 7.5) was added as a buffer to the E. coli–CPP mixture and incubated at 37 °C for 1 h. After washing the cells, their fluorescence intensities were measured by flow cytometry to quantify CPP delivery efficiency.
Prepared cells at a density of 5 × 10^7 cells/50 μL were treated with 5 μg of TAMRA-labeled CPPs (0.1 μg/μL) and incubated for 1 h at room temperature. After incubation, the cells were washed with 1 × PBS and centrifuged at 7000 rpm for 10 min three times to remove extracellular CPPs.
Then, the cells were washed with 1 × PBS and centrifuged at 7000 rpm for 10 min three times. The fluorescence intensity of the CPPs in E. coli cells was quantitatively measured using a Guava EasyCyte flow cytometer (Millipore, Darmstadt, Germany) with an excitation wavelength of 547 nm and an emission wavelength of 580 nm.

E. coli DH5α cells [2] = assay: Penetration efficiency of TAMRA-labeled CPPs, chemical (CaCl2) treatment method, flow cytometry; format: cell-based, Escherichia coli; details: for Cell penetration efficiency (TAMRA fluorescence), Chemical (CaCl2) method - Tris buffer / Cell penetration efficiency (TAMRA fluorescence), Chemical (CaCl2) method - DW: 50 mM CaCl2-treated E. coli DH5α, 5 μg TAMRA-CPP; for Cell penetration efficiency (TAMRA fluorescence), Chemical (CaCl2) method - Tris buffer: 20 mM Tris-Cl pH 7.5, 1 h; for Cell penetration efficiency (TAMRA fluorescence), Chemical (CaCl2) method - DW: 5 × 10^7 cells/50 μL, distilled water, 1 h; for Penetration efficiency (TAMRA FI): TAMRA fluorescence intensity in E. coli, library screen of 98 CPPs
Source text: (§1) (Fig. 2a). […] First, we prepared electrocompetent and chemically competent cells.

E. coli DH5α cells [3] = assay: Inhibition of bacterial cell growth by CPPs (Max OD600 relative to control); format: cell-based, Escherichia coli; details: for Max OD (%) (Figure 3f): E. coli DH5α diluted 1/1000 in LB, 5 μg TAMRA-CPP (0.1 μg/μL), OD600 monitored 18 h, max OD of treated cells / max OD of control cells; for Growth rate (%): E. coli growth with CPP, relative to control; for Anti-bacterial activity: class (Cytotoxic / Safe), cutoff of 50%
Protocol: E. coli DH5α cells were grown until OD600 = 1 at 37 °C with shaking at 200 rpm. […] Then, cell growth (OD600) was monitored for 18 h by using the Synergy^TM H1 hybrid multi-mode microplate reader (BioTek, Vermont, USA). As a control, we used E. coli cells that were not treated with CPPs.

E. coli DH5α cells [4] = assay: Penetration efficiency of TAMRA-labeled CPPs, electroporation-based method, flow cytometry; format: cell-based, Escherichia coli; details: electrocompetent E. coli DH5α, 5 μg TAMRA-CPP, electroporation 1.8 kV; for Cell penetration efficiency (TAMRA fluorescence), Electrooration - Tris buffer: 20 mM Tris-HCl pH 7.5, 1 h; for Cell penetration efficiency (TAMRA fluorescence), Electrooration - DW: distilled water, 1 h
Source text: as §1

[5] = system: E. coli carrying target plasmid with I-SceI recognition site; assay: Plasmid removal assay using CPP-conjugated I-SceI; format: cell-based, Escherichia coli
Source text: To investigate the applicability of CPPs in plasmid removal using a CPP-conjugated I-SceI restriction enzyme, we constructed three different target plasmids containing a different replication origin: a pSC101 origin (low-copy number), ColE1 origin (mid-copy number), and RSF1030 origin (high-copy number). Then, an I-SceI recognition site was inserted into the target plasmids. In addition, for the selection of plasmid-containing cells and counterselection of plasmid-free cells, the tetA gene (tetracycline resistance gene) was introduced into the target plasmids. The selection and counterselection were conducted by using tetracycline and NiCl2, respectively.
For the plasmid removal experiment, three E. coli strains carrying a target plasmid with a different replication origin were prepared. The plasmids contained an I-SceI restriction site and a replication origin (pSC101, ColE1, or RSF1030). […] Then, the buffer was replaced with 1 × CutSmart buffer, because I-SceI requires the Mg^2+ included in the CutSmart buffer[64] as a cofactor. The cells were further incubated at 37 °C for 2 h and then spread on LB agar plates containing 2 mM NiCl2. The colonies grown on NiCl2-containing plates were transferred to an LB agar plate and a tetracycline-containing LB agar plate in order to confirm whether the plasmids were completely removed from the cells.

Molecule	Cell penetration efficiency (TAMRA fluorescence), Control (E. coli DH5α cells [1]; replicate 1) [A.U.]	Cell penetration efficiency (TAMRA fluorescence), Control (E. coli DH5α cells [1]; replicate 2) [A.U.]	Cell penetration efficiency (TAMRA fluorescence), Control (E. coli DH5α cells [1]; replicate 3) [A.U.]	Cell penetration efficiency (TAMRA fluorescence), Chemical (CaCl2) method - Tris buffer (E. coli DH5α cells [2]; replicate 1) [A.U.]	Cell penetration efficiency (TAMRA fluorescence), Chemical (CaCl2) method - Tris buffer (E. coli DH5α cells [2]; replicate 2) [A.U.]	Cell penetration efficiency (TAMRA fluorescence), Chemical (CaCl2) method - Tris buffer (E. coli DH5α cells [2]; replicate 3) [A.U.]	Cell penetration efficiency (TAMRA fluorescence), Chemical (CaCl2) method - DW (E. coli DH5α cells [2]; replicate 1) [A.U.]	Cell penetration efficiency (TAMRA fluorescence), Chemical (CaCl2) method - DW (E. coli DH5α cells [2]; replicate 2) [A.U.]	Cell penetration efficiency (TAMRA fluorescence), Chemical (CaCl2) method - DW (E. coli DH5α cells [2]; replicate 3) [A.U.]	Penetration efficiency (TAMRA FI) (E. coli DH5α cells [2])	Max OD (%) (Figure 3f) (E. coli DH5α cells [3]; replicate 1)	Max OD (%) (Figure 3f) (E. coli DH5α cells [3]; replicate 2)	Max OD (%) (Figure 3f) (E. coli DH5α cells [3]; replicate 3)	Growth rate (%) (E. coli DH5α cells [3])	Anti-bacterial activity (E. coli DH5α cells [3])	Cell penetration efficiency (TAMRA fluorescence), Electrooration - Tris buffer (E. coli DH5α cells [4]; replicate 1) [A.U.]	Cell penetration efficiency (TAMRA fluorescence), Electrooration - Tris buffer (E. coli DH5α cells [4]; replicate 2) [A.U.]	Cell penetration efficiency (TAMRA fluorescence), Electrooration - Tris buffer (E. coli DH5α cells [4]; replicate 3) [A.U.]	Cell penetration efficiency (TAMRA fluorescence), Electrooration - DW (E. coli DH5α cells [4]; replicate 1) [A.U.]	Cell penetration efficiency (TAMRA fluorescence), Electrooration - DW (E. coli DH5α cells [4]; replicate 2) [A.U.]	other results
ppTG1 (GLFKALLKLLKSLWKLLLKA; also: TAMRA label, position not given here) [CPP 16, TAMRA-labeled CPP of the 98-CPP library, one of five used to evaluate delivery methods]	21.8791	18.0245	15.0301	251.992	38.28	55.663	201.023	237.812	176.507	130.52	61.1865	69.0965	63.3967	64.5599	Safe	299.308	307.97	322.066	116.793	316.678	Cell penetration efficiency (TAMRA fluorescence), Chemical (CaCl2) method - Tris buffer (E. coli DH5α cells [2]; replicate 4): 85.7449 A.U.; Cell penetration efficiency (TAMRA fluorescence), Chemical (CaCl2) method - Tris buffer (E. coli DH5α cells [2]; replicate 5): 220.921 A.U.; Cell penetration efficiency (TAMRA fluorescence), Electrooration - DW (E. coli DH5α cells [4]; replicate 3): 302.379 A.U.
Rev(34-50) (TRQARRNRRRRWRERQR; also: TAMRA label, site not given here) [CPP 15, TAMRA-labeled CPP of the 98-CPP library, one of five used to evaluate delivery methods]	29.8568	31.0533	36.163	103.028	97.4338	68.163	228.73	679.736	805.596	1458.36	73.0516	73.4005	79.5657	75.3393	Safe	1419.77	1626.5	1629.96	772.285	531.205	Cell penetration efficiency (TAMRA fluorescence), Electrooration - Tris buffer (E. coli DH5α cells [4]; replicate 4): 1157.23 A.U.; Cell penetration efficiency (TAMRA fluorescence), Electrooration - DW (E. coli DH5α cells [4]; replicate 3): 564.956 A.U.
R9-TAT (GRRRRRRRRRPPQ; also: TAMRA label, site not given here) [CPP 14, TAMRA-labeled CPP of the 98-CPP library, one of five used to evaluate delivery methods]	29.4004	32.4749	29.0426	247.778	278.483	297.356	1405.86	216.364	286.408	1704.74	76.3087	63.2803	64.6762	68.0884	Safe	1652.65	2400.94	906.944	871.282	655.834	Cell penetration efficiency (TAMRA fluorescence), Electrooration - Tris buffer (E. coli DH5α cells [4]; replicate 4): 1858.43 A.U.; Cell penetration efficiency (TAMRA fluorescence), Electrooration - DW (E. coli DH5α cells [4]; replicate 3): 728.231 A.U.
I-SceI (No CPP): meganuclease I-SceI without CPP, control (protein, UniProt P03882 1-235, looked up) Intron-encoded endonuclease …: MKNIKKNQVMNLGPNSKLLKEYKSQLIELNIEQFEAGIGLILGDAYIRSRDEGKTYCMQFEWKNKAYMDHVCLLYDQWVLSPPHKKERVNHLGNLVITWGAQTFKHQAFNKLANLFIVNNKKTIPNNLVENYLTPMSLAYWFMDDGGKWDYNKNSTNKSIVLNTQSFTFEEVEYLVKGLRNKFQLNCYVKINKNKPIIYIDSMSYLIFYNLIKPYLIPQMMYKLPNTISSETFLK	–	–	–	–	–	–	–	–	–	–	–	–	–	–	–	–	–	–	–	–	Plasmid removal efficiency (%) ([5]; plasmid with ColE1 origin (15–20 copies), same protocol, replicate 1): 19.3%; Plasmid removal efficiency (%) ([5]; plasmid with ColE1 origin (15–20 copies), same protocol, replicate 2): 13.3%; Plasmid removal efficiency (%) ([5]; plasmid with ColE1 origin (15–20 copies), same protocol, replicate 3): 14.8%; Plasmid removal efficiency (%) ([5]; plasmid with RSF1030 origin (>100 copies), same protocol, replicate 1): 17.57%; Plasmid removal efficiency (%) ([5]; plasmid with RSF1030 origin (>100 copies), same protocol, replicate 2): 16.88%; Plasmid removal efficiency (%) ([5]; plasmid with RSF1030 origin (>100 copies), same protocol, replicate 3): 17.79%; Plasmid removal efficiency (%) ([5]; plasmid with pSC101 origin (~5 copies), 50 μL protein (0.05 μg/μL), electroporation, Tris-HCl pH 7.5 3 h, CutSmart 2 h 37 °C, 2 mM NiCl2 selection, replicate 1): 16.6%; Plasmid removal efficiency (%) ([5]; plasmid with pSC101 origin (~5 copies), 50 μL protein (0.05 μg/μL), electroporation, Tris-HCl pH 7.5 3 h, CutSmart 2 h 37 °C, 2 mM NiCl2 selection, replicate 2): 15%; Plasmid removal efficiency (%) ([5]; plasmid with pSC101 origin (~5 copies), 50 μL protein (0.05 μg/μL), electroporation, Tris-HCl pH 7.5 3 h, CutSmart 2 h 37 °C, 2 mM NiCl2 selection, replicate 3): 15.64%
